Test results reported in the supplement of paper PMC10567573.

B1: OR10K2 (parent)
chain: SLARLQQLLFVIFLLLYLFTLGTN

Variants of: B1
Experiment: protein stability index of a GFP-peptide fusion (GPS, HEK-293T) (PSI 1-6); higher = more stable
Settings: c terminus: a fixed tail appended
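Also: lentivirally expressed fusions sorted by FACS into six bins by GFP to DsRed ratio, PSI derived from sequencing read proportions per bin multiplied by bin number.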

Protein stability index of substitutions, site by site:
L14: F 2.64 | G 2.6
F10: T 3.08 | G 3.07 | Q 2.22 | Y 2.37 | I 4.24 | V 2.29 | N 2.18 | R 3.34
L8: N 2.24 | E 1.9 | C 3.24 | S 2.86 | D 2.99 | A 1.98 | Y 3.36 | R 3.34 | G 2.92 | W 2.53 | M 3.83 | F 2.88 | P 3.32 | I 2.4 | T 1.97 | K 3.04 | V 2.17
L9: C 3.51 | K 3.92 | I 2.15 | W 2.84 | P 3.06
R4: E 3.95 | P 2.24 | L 3.28 | A 4.04 | H 2.36 | I 3.36 | N 2.73 | M 3.67 | S 2.62 | K 2.19 | Y 2.57 | D 1.62 | F 2.36 | W 2.28
A3: G 1.49 | M 1.88 | W 2.23 | Q 3.09 | N 3.31 | T 1.91 | L 2.75 | R 1.76 | F 1.86 | K 1.51 | E 1.91 | H 3.07
L2: A 3.88 | G 1.4 | K 2.49 | Y 2.34 | E 2.01 | T 2.59 | F 2.52 | I 3.49 | S 2.94 | C 2.55 | D 2.06 | W 1.88 | M 2.45 | R 2.48 | N 3.77 | Q 2.62
Q6: Y 2.6 | E 3.01 | G 2.56 | S 2.43 | K 3.25 | F 2.72 | I 2.84 | C 2.58 | V 2.45 | D 3.29 | M 2.94 | N 2.84 | T 2.68 | H 2.35 | L 2.97 | A 2.61 | W 2.2 | P 1.38
I12: E 1.78 | P 3.58 | L 2.29 | K 3.69 | H 2.02
L5: F 2.59 | E 2.27 | T 2.28 | N 2 | C 3.1 | V 2.44 | A 3.68 | S 3.05 | G 3.76 | H 2.62 | R 1.85 | M 1.41 | D 3.05 | W 3.37 | P 2.02 | I 1.78 | K 2.85
S1: A 2.7 | P 2.46 | N 2.38 | C 2.44 | Q 2.21 | W 1.59 | M 3.25 | I 2.21 | E 2.11 | Y 3.24 | D 1.54 | R 2.11 | K 2.87 | H 2.88 | F 1.35 | G 2.86 | V 2.31 | L 3.72 | T 2.85
V11: F 2.58 | P 2.94 | T 3.08 | S 1.85 | A 1.59 | Y 2.3 | H 2.61 | M 3.05
F13: Q 3.04 | K 1.43 | W 3.36 | G 1.73 | Y 3.74 | H 2.96 | C 3.12 | A 2.44
Q7: P 1.9 | L 1.72 | T 1.74 | G 3.23 | W 1.58 | A 1.91 | E 2.69 | R 2.45 | N 3.21 | K 3.27 | Y 1.66 | F 1.79 | V 2.1 | M 2.14 | I 1.99 | C 2.1 | H 1.9 | S 2.11
